These results are taken from article PMC3084661.

Like-named read-outs stand apart in the source and are kept apart here.

What all share (assay): FRET or BRET
On the technique in general: In BRET a luciferase serves as donor, and the signal depends on an acceptor being close.

Test [1] concerns the target S. oneidensis RNA polymerase core (α, β, β′, ω), assembled in vivo (Shewanella oneidensis MR-1) (UniProt Q8EK47).
Test [2] has the same target. The source holds these as a separate data set.
For test [3] the target is unchanged. This is another data set of the same source.

Regarding “Cy3B-labelled single-cysteine S. oneidensis σ^70 derivative N399C (from UniProt Q8EHE1 1-616) (natural protein)”, the initial σ^70 retention (%) in test [1] was 45%; in test [3], 59%. The σ^70 retention half-life in test [1] was 43 min; in test [2], 80 min; in test [3], 75 min.
